Consider two molecules from US6111089, “Trophinin, trophinin-assisting proteins and methods to inhibit implantation” (The Burnham Institute, dated 2000).

First the molecules themselves.
B1: biotinylated GST-N-terminal trophinin (other)
chain: {GST}-MDIDCLTREELGDDSQAWSRFSFEIEARAQENADASTNVNFSRGASTRAGFSDRASISFNGAPSSS
modifications: also: labeled with biotin succinamide (site not given here)
B2: human trophinin (other)
chain: MDIDCLTREELGDDSQAWSRFSFEIEARAQENADASTNVNFSRGASTRAGFSDRASISFNGAPSSSGGFSGGPGITFGVAPSTSASFSNTASISFGGTLSTSSSFSSAASISFGCAHSTSTSFSSEASISFGGMPCTSASFSGGVSSSFSGPLSTSATFSGGASSGFGGTLSTTAGFSGVLSTSTSFGSAPTTSTVFSSALSTSTGFGGILSTSVCFGGSPSSSGSFGGTLSTSICFGGSPCTSTGFGGTLSTSVSFGGSSSTSANFGGTLSTSICFDGSPSTGAGFGGALNTSASFGSVLNTSTGFGGAMSTSADFGGTLSTSVCFGGSPGTSVSFGSALNTNAGYGGAVSTNTDFGGTLSTSVCFGGSPSTSAGFGGALNTNASFGCAVSTSASFSGAVSTSACFSGAPITNPGFGGAFSTSAGFGGALSTAADFGGTPSNSIGFGAAPSTSVSFGGAHGTSLCFGGAPSTSLCFGSASNTNLCFGGPPSTSACFSGATSPSFCDGPSTSTGFSFGNGLSTNAGFGGGLNTSAGFGGGLGTSAGFSGGLSTSSGFDGGLGTSAGFGGGPGTSTGFGGGLGTSAGFSGGLGTSAGFGGGLVTSDGFGGGLGTNASFGSTLGTSAGFSGGLSTSDGFGSRPNASFDRGLSTIIGFGSGSNTSTGFTGEPSTSTGFSSGPSSIVGFSGGPSTGVGFCSGPSTSGFSGGPSTGAGFGGGPNTGAGFGGGPSTSAGFGSGAASLGACGFSYG

For the experiment “human trophinin”, the target named is B2. Nature of the experiment: staining of unpermeabilized HT-H, SNG-M and trophinin/tastin-transfected COS-1 cells, avidin-FITC. The procedure: (§1) To identify hydrophilic extracellular domains of human trophinin that mediate cell adhesion, individual domains were expressed and evaluated for specific binding to trophinin expressing cells. The trophinin extracellular domain fusion proteins GST551, GST552 and GST553, the GST-N-terminal trophinin domain (residue 1 to 66) and GST were labeled with biotin succinamide (Sigma). SNG-M, HT-H and COS-1 cells transfected with a mixture of human trophinin and tastin cDNA were grown on coverslips and processed for cell staining with the biotinylated proteins essentially as was described for the antibodies to the external domains of trophinin, except that avidin-FITC (Cappel) was used in place of a FITC-secondary antibody.

A further experiment concerns the target biotinylated GST (Schistosoma japonicum (Blood fluke), UniProt P08515 = GST, labeled with biotin succinamide). The experiment is described as above. The procedure:
as §1

As to B1, in the experiment with human trophinin, the binding result is on record as “no binding”. Turning to B2, the binding result with biotinylated GST was “no binding”.
